From patent US20220089710A1, “Method of Treating Signs and Symptoms of Osteoarthritis” (Pfizer Inc., priority 2019, published 2022)

Test system: patients with osteoarthritis (OA) of the knee or hip
Experiment: Example 3: adjudicated joint safety outcomes (patient-level and joint-level) and total joint replacements, Safety Population
Type: in vivo, human
Conditions: for rapidly progressive OA (types 1 and 2 combined): % of patients: any adjudicated RPOA
From the text: Central radiology readers (Central Readers) may be board certified radiologists or have the international equivalent as musculoskeletal radiologists. The Central Readers may be governed by an imaging atlas and an imaging Charter which includes a specific description of the scope of their responsibilities. Central Readers may review the radiology images at Screening for assessment of eligibility (including determination of Kellgren-Lawrence Grade) and identification of exclusionary joint conditions such as rapidly progressive osteoarthritis, atrophic or hypotrophic osteoarthritis, subchondral insufficiency fractures (spontaneous osteonecrosis of the knee [SPONK]), primary osteonecrosis and pathological fractures. After start of treatment, the Central Reader may review radiology images for diagnosis of joint conditions that would warrant further evaluation by the Adjudication Committee such as possible or probable rapidly progressive osteoarthritis, subchondral insufficiency fractures (spontaneous osteonecrosis of the knee [SPONK]), primary osteonecrosis or pathological fracture.
For subjects who are identified with a possible or probable joint event (i.e., rapidly progressive osteoarthritis, subchondral insufficiency fractures, spontaneous osteonecrosis of the knee (SPONK), primary osteonecrosis or pathological fracture) and subjects undergoing total joint replacement for any reason, all images and other source documentation may be provided to the blinded Adjudication Committee for review and adjudication of the event. The Adjudication Committee's assessment of the event may represent the final classification of the event.
This study was designed with a total (post-randomization) duration of 80 weeks and consisted of three periods: Screening (up to a maximum of 37 days), Double-blind Treatment (56 weeks), and Safety Follow-up (24 weeks) (FIG. 1). The Screening Period included a Washout Period (lasting 2-30 days) if required, and an Initial Pain Assessment Period (7 days prior to Randomization/Baseline; minimum 3 days).

[1] = 2.5 mg SC, observation time-adjusted analysis
[2] = 2.5 mg SC, primary outcome per subject
[3] = 5 mg SC, observation time-adjusted analysis
[4] = 5 mg SC, primary outcome per subject
[5] = tanezumab 2.5 mg (N = 1002), joint-level
[6] = tanezumab 5 mg (N = 998), joint-level

With “tanezumab: humanized immunoglobulin G Type 2 (IgG2) monoclonal antibody directed against human nerve growth factor (NGF); SEQ ID NOs: 9 or 11 and 10” the “Observation time-adjusted incidence of patients with ≥1 reported TJR” value (2.5 mg SC) was “(51.8) /1000 patient-years”, the “Pathological Fracture: observation time-adjusted rate” value (2.5 mg SC) was “(0) /1000 patient-years” and the “Patients analyzed by the Adjudication Committee: n” value (2.5 mg SC) was 115. For the same substance, the “Primary Composite Joint Safety Endpoint: rate difference vs. NSAID” value (2.5 mg SC) was 22.5, the “Primary Osteonecrosis: observation time-adjusted rate” value (2.5 mg SC) was “(0) /1000 patient-years” and the “Rapidly Progressive OA type 1: observation time-adjusted rate” value (2.5 mg SC) was “(28.4) /1000 patient-years”. The “Rapidly Progressive OA type 1: rate difference vs. NSAID” value (2.5 mg SC) was 17.6, the “Rapidly Progressive OA type 2: rate difference vs. NSAID” value (2.5 mg SC) was 1.9 and the “Rapidly Progressive OA: rate difference vs. NSAID” value (2.5 mg SC) was 19.6. The “Secondary Composite Joint Safety Endpoint: observation time-adjusted rate” value (2.5 mg SC) was “(8.8) /1000 patient-years”, the “Secondary Composite Joint Safety Endpoint: rate difference vs. NSAID” value (2.5 mg SC) was 3.8 and the “Subchondral Insufficiency Fracture: observation time-adjusted rate” value (2.5 mg SC) was “(5.8) /1000 patient-years”. The “Subchondral Insufficiency Fracture: rate difference vs. NSAID” value (2.5 mg SC) was 1.9, the “TJR: rate difference vs. NSAID” value (2.5 mg SC) was 27.2 and the “patients with ≥1 reported TJR: number” value (2.5 mg SC) was 53. The “rapidly progressive OA (types 1 and 2 combined): % of patients” value (2.5 mg SC) was 3.2%, the “Pathological Fracture: n” value [1] was 0 and the “Primary Composite Joint Safety Endpoint: n” value [1] was 38. For the same substance, the “Primary Osteonecrosis: n” value [1] was 0, the “Rapidly Progressive OA type 1: n” value [1] was 29 and the “Rapidly Progressive OA: n” value [1] was 32. For the same substance, the “Secondary Composite Joint Safety Endpoint: n” value [1] was 9, the “Subchondral Insufficiency Fracture: n” value [1] was 6 and the “Normal Progression of OA: %” value [2] was “(6.6%)”. For the same substance, the “Normal Progression of OA: n” value [2] was 66, the “Not enough information to determine Rapid vs. Normal Progression of OA: %” value [2] was “(0.2%)” and the “Not enough information to determine Rapid vs. Normal Progression of OA: n” value [2] was 2. For the same substance, the “Other Joint Outcome: %” value [2] was “(0.9%)”, the “Other Joint Outcome: n” value [2] was 9 and the “Pathological Fracture: n” value [2] was 0. For the same substance, the “Primary Composite Joint Safety Endpoint: %” value [2] was 3.8% and (3.8%), the “Primary Composite Joint Safety Endpoint: n” value [2] was 38 and the “Primary Osteonecrosis: n” value [2] was 0. The “Rapidly Progressive OA type 1: %” value [2] was “(2.9%)”, the “Rapidly Progressive OA type 1: n” value [2] was 29 and the “Rapidly Progressive OA type 2: %” value [2] was “(0.3%)”. For the same substance, the “Rapidly Progressive OA: %” value [2] was “(3.2%)”, the “Rapidly Progressive OA: n” value [2] was 32 and the “Secondary Composite Joint Safety Endpoint: %” value [2] was “(0.9%)”. For the same substance, the “Secondary Composite Joint Safety Endpoint: n” value [2] was 9, the “Subchondral Insufficiency Fracture: %” value [2] was “(0.6%)” and the “Subchondral Insufficiency Fracture: n” value [2] was 6. The “Observation time-adjusted incidence of patients with ≥1 reported TJR” value (5 mg SC) was “(78.7) /1000 patient-years”, the “Pathological Fracture: observation time-adjusted rate” value (5 mg SC) was “(0) /1000 patient-years” and the “Patients analyzed by the Adjudication Committee: n” value (5 mg SC) was 171. For the same substance, the “Primary Composite Joint Safety Endpoint: rate difference vs. NSAID” value (5 mg SC) was 56.7, the “Primary Osteonecrosis: observation time-adjusted rate” value (5 mg SC) was “(1.0) /1000 patient-years” and the “Rapidly Progressive OA type 1: observation time-adjusted rate” value (5 mg SC) was “(49.1) /1000 patient-years”. The “Rapidly Progressive OA type 1: rate difference vs. NSAID” value (5 mg SC) was 38.2, the “Rapidly Progressive OA type 2: rate difference vs. NSAID” value (5 mg SC) was 12.9 and the “Rapidly Progressive OA: rate difference vs. NSAID” value (5 mg SC) was 51.5. For the same substance, the “Secondary Composite Joint Safety Endpoint: observation time-adjusted rate” value (5 mg SC) was “(21.8) /1000 patient-years”, the “Secondary Composite Joint Safety Endpoint: rate difference vs. NSAID” value (5 mg SC) was 16.9 and the “Subchondral Insufficiency Fracture: observation time-adjusted rate” value (5 mg SC) was “(6.9) /1000 patient-years”. For the same substance, the “Subchondral Insufficiency Fracture: rate difference vs. NSAID” value (5 mg SC) was 3.0, the “TJR: rate difference vs. NSAID” value (5 mg SC) was 54.0 and the “patients with ≥1 reported TJR: number” value (5 mg SC) was 79. For the same substance, the “rapidly progressive OA (types 1 and 2 combined): % of patients” value (5 mg SC) was 6.3%, the “Pathological Fracture: n” value [3] was 0 and the “Primary Composite Joint Safety Endpoint: n” value [3] was 71. For the same substance, the “Primary Osteonecrosis: n” value [3] was 1, the “Rapidly Progressive OA type 1: n” value [3] was 49 and the “Rapidly Progressive OA type 2: n” value [3] was 14. The “Rapidly Progressive OA: n” value [3] was 63, the “Secondary Composite Joint Safety Endpoint: n” value [3] was 22 and the “Subchondral Insufficiency Fracture: n” value [3] was 7. The “Normal Progression of OA: %” value [4] was “(7.9%)”, the “Normal Progression of OA: n” value [4] was 79 and the “Not enough information to determine Rapid vs. Normal Progression of OA: n” value [4] was 0. For the same substance, the “Other Joint Outcome: %” value [4] was “(2.1%)”, the “Other Joint Outcome: n” value [4] was 21 and the “Pathological Fracture: n” value [4] was 0. The “Primary Composite Joint Safety Endpoint: %” value [4] was 7.1% and (7.1%), the “Primary Composite Joint Safety Endpoint: n” value [4] was 71 and the “Primary Osteonecrosis: %” value [4] was “(0.1%)”. For the same substance, the “Primary Osteonecrosis: n” value [4] was 1, the “Rapidly Progressive OA type 1: %” value [4] was “(4.9%)” and the “Rapidly Progressive OA type 1: n” value [4] was 49. The “Rapidly Progressive OA type 2: %” value [4] was 1.4% and (1.4%), the “Rapidly Progressive OA type 2: n” value [4] was 14 and the “Rapidly Progressive OA: %” value [4] was “(6.3%)”. For the same substance, the “Rapidly Progressive OA: n” value [4] was 63, the “Secondary Composite Joint Safety Endpoint: %” value [4] was “(2.2%)” and the “Secondary Composite Joint Safety Endpoint: n” value [4] was 22. For the same substance, the “Subchondral Insufficiency Fracture: %” value [4] was “(0.7%)”, the “Subchondral Insufficiency Fracture: n” value [4] was 7 and the “Rapidly Progressive OA type 1: Associated with TJR No, %” value [5] was “(90.0%)”. For the same substance, the “Rapidly Progressive OA type 1: Associated with TJR Yes, %” value [5] was “(10.0%)”, the “Rapidly Progressive OA type 1: Baseline Kellgren-Lawrence Grade of Affected Joint 0, %” value [5] was “(3.3%)” and the “Rapidly Progressive OA type 1: Baseline Kellgren-Lawrence Grade of Affected Joint 1, %” value [5] was “(20.0%)”. The “Rapidly Progressive OA type 1: Baseline Kellgren-Lawrence Grade of Affected Joint 2, %” value [5] was “(36.7%)”, the “Rapidly Progressive OA type 1: Baseline Kellgren-Lawrence Grade of Affected Joint 3, %” value [5] was “(40.0%)” and the “Rapidly Progressive OA type 1: Joint affected Hip, %” value [5] was “(13.3%)”. The “Rapidly Progressive OA type 1: Joint affected Knee, %” value [5] was “(86.7%)”, the “Rapidly Progressive OA type 2: Associated with TJR No, %” value [5] was “(66.7%)” and the “Rapidly Progressive OA type 2: Associated with TJR Yes, %” value [5] was “(33.3%)”. For the same substance, the “Rapidly Progressive OA type 2: Baseline Kellgren-Lawrence Grade of Affected Joint 3, %” value [5] was “(33.3%)”, the “Rapidly Progressive OA type 2: Baseline Kellgren-Lawrence Grade of Affected Joint 4, %” value [5] was “(66.7%)” and the “Rapidly Progressive OA type 2: Joint affected Hip, %” value [5] was “(33.3%)”. For the same substance, the “Rapidly Progressive OA type 2: Joint affected Knee, %” value [5] was “(66.7%)”, the “Subchondral Insufficiency Fracture: Associated with TJR No, %” value [5] was “(100.0%)” and the “Subchondral Insufficiency Fracture: Baseline Kellgren-Lawrence Grade of Affected Joint 2, %” value [5] was “(33.3%)”. For the same substance, the “Subchondral Insufficiency Fracture: Baseline Kellgren-Lawrence Grade of Affected Joint 3, %” value [5] was “(66.7%)”, the “Subchondral Insufficiency Fracture: Joint affected Hip, %” value [5] was “(33.3%)” and the “Subchondral Insufficiency Fracture: Joint affected Knee, %” value [5] was “(66.7%)”. For the same substance, the “Rapidly Progressive OA type 1: Associated with TJR No, %” value [6] was “(84.9%)”, the “Rapidly Progressive OA type 1: Associated with TJR Yes, %” value [6] was “(15.1%)” and the “Rapidly Progressive OA type 1: Baseline Kellgren-Lawrence Grade of Affected Joint 0, %” value [6] was “(3.8%)”. The “Rapidly Progressive OA type 1: Baseline Kellgren-Lawrence Grade of Affected Joint 1, %” value [6] was “(20.8%)”, the “Rapidly Progressive OA type 1: Baseline Kellgren-Lawrence Grade of Affected Joint 2, %” value [6] was “(43.4%)” and the “Rapidly Progressive OA type 1: Baseline Kellgren-Lawrence Grade of Affected Joint 3, %” value [6] was “(30.2%)”. For the same substance, the “Rapidly Progressive OA type 1: Baseline Kellgren-Lawrence Grade of Affected Joint Not Available, %” value [6] was “(1.9%)”, the “Rapidly Progressive OA type 1: Joint affected Hip, %” value [6] was “(15.1%)” and the “Rapidly Progressive OA type 1: Joint affected Knee, %” value [6] was “(83.0%)”. For the same substance, the “Rapidly Progressive OA type 1: Joint affected Shoulder, %” value [6] was “(1.9%)”, the “Rapidly Progressive OA type 2: Associated with TJR No, %” value [6] was “(43.8%)” and the “Rapidly Progressive OA type 2: Associated with TJR Yes, %” value [6] was “(56.3%)”. The “Rapidly Progressive OA type 2: Baseline Kellgren-Lawrence Grade of Affected Joint 0, %” value [6] was “(12.5%)”, the “Rapidly Progressive OA type 2: Baseline Kellgren-Lawrence Grade of Affected Joint 1, %” value [6] was “(6.3%)” and the “Rapidly Progressive OA type 2: Baseline Kellgren-Lawrence Grade of Affected Joint 2, %” value [6] was “(6.3%)”. For the same substance, the “Rapidly Progressive OA type 2: Baseline Kellgren-Lawrence Grade of Affected Joint 3, %” value [6] was “(31.3%)”, the “Rapidly Progressive OA type 2: Baseline Kellgren-Lawrence Grade of Affected Joint 4, %” value [6] was “(37.5%)” and the “Rapidly Progressive OA type 2: Baseline Kellgren-Lawrence Grade of Affected Joint Not Available, %” value [6] was “(6.3%)”. For the same substance, the “Rapidly Progressive OA type 2: Joint affected Hip, %” value [6] was “(43.8%)”, the “Rapidly Progressive OA type 2: Joint affected Knee, %” value [6] was “(50.0%)” and the “Rapidly Progressive OA type 2: Joint affected Shoulder, %” value [6] was “(6.3%)”. The “Subchondral Insufficiency Fracture: Associated with TJR No, %” value [6] was “(57.1%)”, the “Subchondral Insufficiency Fracture: Associated with TJR Yes, %” value [6] was “(42.9%)” and the “Subchondral Insufficiency Fracture: Baseline Kellgren-Lawrence Grade of Affected Joint 0, %” value [6] was “(14.3%)”. For the same substance, the “Subchondral Insufficiency Fracture: Baseline Kellgren-Lawrence Grade of Affected Joint 1, %” value [6] was “(14.3%)”, the “Subchondral Insufficiency Fracture: Baseline Kellgren-Lawrence Grade of Affected Joint 2, %” value [6] was “(57.1%)” and the “Subchondral Insufficiency Fracture: Baseline Kellgren-Lawrence Grade of Affected Joint 3, %” value [6] was “(14.3%)”. For the same substance, the “Subchondral Insufficiency Fracture: Joint affected Hip, %” value [6] was “(14.3%)” and the “Subchondral Insufficiency Fracture: Joint affected Knee, %” value [6] was “(85.7%)”.
